{"source": "patent US20030199071A1", "about": "(published 2003)", "biological_target": "FimH Q133A (E. coli, UniProt P08191 22-300)", "assay": "co-expression with FimC in E. coli; data not shown"}
{"binder": "FimC (wild type periplasmic chaperone of E. coli type 1 pili) (other, also called FimC alone; wild type FimC) GVALGATRVIYPAGQKQVQLAVTNNDENSTYLIQSWVENADGVKDGRFIVTPPLFAMKGKKENTLRILDATNNQLPQDRESLFWMNVKAIPSMDKSKLTENTLQLAIISRIKLYYRPAKLALPPDQAAEKLRFRRSANSLTLINPTPYYLTVTELNAGTRVLENALVPPMGESTVKLPSDAGSNITYRTINDYGALTPKMTGVME", "values": [{"measurement": "binding result", "result": "binds"}]}
